From PMC9159944

Experiments:
[1] = target: Chimeric S. cerevisiae MCM^(Mcm3-YDF, ybbR-LD655-Mcm6) with a humanized Mcm3 subunit, loaded on origin DNA (S. cerevisiae | human) (UniProt P29469)
[2] = target: S. cerevisiae recombinant MCM^ybbR-LD655-Mcm6 (MCM2–MCM7 complex), loaded on origin DNA (S. cerevisiae) (UniProt P29469)

Sequence of UniProt P29469 (P29469 whole entry, looked up, change not shown, tested part not stated): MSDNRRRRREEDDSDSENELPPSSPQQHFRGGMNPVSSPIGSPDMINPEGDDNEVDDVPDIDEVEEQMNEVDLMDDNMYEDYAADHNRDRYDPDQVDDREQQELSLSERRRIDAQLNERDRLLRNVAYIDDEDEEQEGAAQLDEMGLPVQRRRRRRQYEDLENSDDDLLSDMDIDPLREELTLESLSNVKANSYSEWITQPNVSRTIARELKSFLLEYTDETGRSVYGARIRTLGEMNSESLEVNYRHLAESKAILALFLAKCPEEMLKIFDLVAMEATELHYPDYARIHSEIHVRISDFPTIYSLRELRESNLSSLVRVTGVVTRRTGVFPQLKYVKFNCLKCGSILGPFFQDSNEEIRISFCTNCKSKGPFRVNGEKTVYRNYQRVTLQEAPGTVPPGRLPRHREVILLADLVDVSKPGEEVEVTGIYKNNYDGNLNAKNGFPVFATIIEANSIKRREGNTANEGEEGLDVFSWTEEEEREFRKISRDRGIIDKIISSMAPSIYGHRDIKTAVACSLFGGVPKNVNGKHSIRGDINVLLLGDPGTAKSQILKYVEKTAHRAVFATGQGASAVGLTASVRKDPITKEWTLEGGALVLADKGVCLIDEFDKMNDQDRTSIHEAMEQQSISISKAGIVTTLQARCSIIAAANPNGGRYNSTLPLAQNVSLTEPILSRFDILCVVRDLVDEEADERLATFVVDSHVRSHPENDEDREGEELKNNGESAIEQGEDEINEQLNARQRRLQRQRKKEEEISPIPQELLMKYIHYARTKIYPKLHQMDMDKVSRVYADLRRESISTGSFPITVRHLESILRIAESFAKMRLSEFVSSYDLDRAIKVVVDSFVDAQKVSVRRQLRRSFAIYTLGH

fraction of cohesin pausing of the total observation time on encountering origin-bound MCM (single-molecule cohesin translocation assay on licensed DNA, 0.15 M NaCl) [1]: 43%
fraction of cohesin pausing of the total observation time on encountering origin-bound MCM (single-molecule cohesin translocation assay on licensed DNA, 0.15 M NaCl) [2]: 6.4%
Substance: Human recombinant cohesin^(STAG1, SCC1-Halo) (from UniProt Q14683 1-1233; Q9UQE7 1-1217; O60216 1-631; Q8WVM7 1-1258) (complex)
